According to US20250018014A1, “METHOD FOR TREATING AND/OR PREVENTING REGNASE-1-RELATED DISEASE” (OSAKA UNIVERSITY, priority 2018, published 2025):
No end group written: not given here.

What was measured:
[1] = molecular target: T1, Peptide 2 (AFPPREYWSEPYPLPPPTC-NH2), biotin-conjugated (human, also: biotin-conjugated, position not given here); assay: flow cytometry of streptavidin beads carrying the biotinylated antigen, anti-rabbit IgG Alexa488
T1 peptide: AFPPREYWSEPYPLPPPTC-NH2
Method: (§1) These beads were mixed with each anti-Regnase-1 antibody, and they were allowed to react. Thereafter, Anti-Rabbit IgG1 Alexa488 (molecular probes, A21244) was mixed and reacted, and analysis was performed with iQue screener PLUS (intellicyt). Data was analyzed with FlowJo ver10.

[2] = molecular target: T2, Peptide 2 ([…]-NH2), partial peptide of human Regnase-1 (Homo sapiens, UniProt Q5D1E8); assay: Binding of anti-non-phosphorylated Regnase-1 peptide antibodies to bead-bound Peptide 2 (iQue screener); conditions: streptavidin-immobilized beads; histograms FIG. 32
T2 construct: made in house; host or cells: chemical synthesis
Method: (§2) • Biotin-Conjugated FL_Reg1, Biotin-Conjugated Peptide • […], biotin-conjugated peptide • AFPPREYWSEPYPLPPPTC-NH2, and biotinylated BSA (Sigma, A8549) were each bound to streptavidin-immobilized beads.
as §1

[3] = molecular target: T3, FL_Reg1 (human full-length Regnase-1) (Homo sapiens, UniProt Q5D1E8); assay: Binding of anti-non-phosphorylated Regnase-1 peptide antibodies to bead-bound full length human Regnase-1 (iQue screener); conditions: streptavidin-immobilized beads; histograms FIG. 32
T3 construct: made in house; host or cells: Expi293 cells
T3 sequence (Q5D1E8 1-599): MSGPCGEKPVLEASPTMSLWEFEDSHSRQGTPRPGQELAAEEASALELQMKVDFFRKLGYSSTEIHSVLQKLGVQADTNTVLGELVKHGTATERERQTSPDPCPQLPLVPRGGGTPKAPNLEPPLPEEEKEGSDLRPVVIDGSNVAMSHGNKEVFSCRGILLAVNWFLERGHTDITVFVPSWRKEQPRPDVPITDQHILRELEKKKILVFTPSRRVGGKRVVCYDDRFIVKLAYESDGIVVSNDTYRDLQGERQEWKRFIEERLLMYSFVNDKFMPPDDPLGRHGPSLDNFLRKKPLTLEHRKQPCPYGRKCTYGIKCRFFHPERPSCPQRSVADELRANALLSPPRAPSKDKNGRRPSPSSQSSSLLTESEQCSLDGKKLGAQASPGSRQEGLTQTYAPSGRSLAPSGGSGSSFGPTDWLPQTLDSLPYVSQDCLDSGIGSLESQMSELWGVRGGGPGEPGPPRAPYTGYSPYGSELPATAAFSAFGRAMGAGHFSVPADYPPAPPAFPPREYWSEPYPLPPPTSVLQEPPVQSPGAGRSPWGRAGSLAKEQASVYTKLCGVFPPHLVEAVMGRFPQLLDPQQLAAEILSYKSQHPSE
Method: as §2, §1

[4] = molecular target: T4, Regnase-1 phosphorylation by TBK1 (Homo sapiens, UniProt Q5D1E8); assay: Inhibitory activity of anti-Regnase-1 antibodies against Regnase-1 phosphorylation by TBK1 (Phos-tag gel, western blotting); type: biochemical; conditions: antibody at final concentrations of 16.7 μg/mL and 5.0 μg/mL; relative to Control group
T4 construct: GST (N, cleaved yes); made in house; host or cells: Expi293 cells
T4 sequence (Q5D1E8 1-599): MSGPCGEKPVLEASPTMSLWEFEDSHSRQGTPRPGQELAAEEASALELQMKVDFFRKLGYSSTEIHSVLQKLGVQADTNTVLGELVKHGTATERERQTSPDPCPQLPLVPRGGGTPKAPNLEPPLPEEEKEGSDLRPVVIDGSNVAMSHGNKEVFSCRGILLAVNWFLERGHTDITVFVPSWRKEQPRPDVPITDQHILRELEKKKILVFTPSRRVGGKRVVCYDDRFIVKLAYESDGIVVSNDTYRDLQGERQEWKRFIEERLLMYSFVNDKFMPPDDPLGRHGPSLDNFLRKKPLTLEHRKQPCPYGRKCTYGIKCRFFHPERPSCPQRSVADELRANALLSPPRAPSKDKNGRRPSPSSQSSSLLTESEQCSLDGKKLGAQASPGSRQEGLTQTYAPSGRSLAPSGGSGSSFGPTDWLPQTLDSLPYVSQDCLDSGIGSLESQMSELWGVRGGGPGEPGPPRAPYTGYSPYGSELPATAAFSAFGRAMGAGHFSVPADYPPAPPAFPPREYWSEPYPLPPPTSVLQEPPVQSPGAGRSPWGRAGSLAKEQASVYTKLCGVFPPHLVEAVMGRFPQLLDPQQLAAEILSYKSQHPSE
Method: To a solution (ATP buffer) containing Kinase Assay Buffer III (manufactured by SignalChem) supplemented with 2 mM DTT, 100 μM sodium vanadate, 2 mM manganese chloride, and 15 μM ATP, dephosphorylated Regnase-1 was mixed at 150 nM. Four microliters of this solution and 4 μL of HEPES Buffered Saline containing 50 μg/mL or 15 μg/mL of anti-Regnase-1 antibody were mixed, and this was allowed to react for one hour. This reaction solution was mixed with 4 μL of ATP buffer containing 150 nM of each kinase (IKKβ or TBK1), and further reacted for one hour. After the reaction, 4 μL of 4× Laemmli Sample buffer (manufactured by Bio-Rad) was added and this mixture was incubated at 95° C. for five minutes for protein denaturation treatment. This sample was ice-cooled for three minutes, and 10 μL of it was added to SuperSep Phos-tag 7.5% 17 wells (manufactured by Wako) placed in EasySeparator (manufactured by Wako). As a marker, 10 μL of WIDE-VIEW Prestained Protein Size Marker III (manufactured by Wako) was added, and the EasySeparator was filled with Tris-Glycine SDS buffer (manufactured by Takara). After electrophoresis at 175 V for 70 minutes, this was washed with 10% Tris-Glycine SDS buffer containing 5 mM EDTA and 20% MeOH for 10 minutes. After two further washings, washing was performed with 10% Tris-Glycine SDS buffer containing 20% MeOH for ten minutes. The washed gel was placed in the Trans-Blot Turbo Transfer Pack (manufactured by Bio-Rad), and transferred using the BioRad Transfer Turbo (manufactured by Bio-Rad). […] Chemiluminescence was detected using ImageQuant LAS4000 mini (manufactured by GE Healthcare).
A band for phosphorylated Regnase-1 was detected due to treatment with each kinase (FIG. 33A). Band densities were measured with Image Quant-TL (manufactured by GE Healthcare). The relative value for the band density of the sample to which each compound was added was calculated, considering the band density of the kinase-added sample of the Control group, to which no compound was added, as 1. […]

| Molecule | binding result [1] | binding to Peptide 2 compared with biotinylated BSA [2] | binding to FL_Reg1 compared with biotinylated BSA [3] | density of the phosphorylated Regnase-1 band in TBK1 treatment [4] |
| --- | --- | --- | --- | --- |
| REB0007 (antibody, V domains shown, Cloned from immunized rabbits, expressed in HEK293 cells, purified by Protein A; also called anti-Regnase-1 antibody; anti-non-phosphorylated Regnase-1 peptide antibody) VH: QEQLEESGGDLVKPEGSLTLTCTASGFSFNSRYWICWVRQAPGKGLEWIGCIVSGDSNTYYASWAKGRFTISKTSSTTVTLQMTSLTAADTATYFCARWYTSSRPGLWGPGTLVTVSS VL: DVVMTQTPASVSEPVGGTVTIKCQASQSISSYLSWYQQKPGQPPKLLIYSATNLASGVSSRFKGSRFGTEFTLTISDLECDDAATYYCQCSYYVSGFAFGGGTEVVVKG | binds | – | – | – |
| REB0014 (antibody, V domains shown, Cloned from immunized rabbits, expressed in HEK293 cells, purified by Protein A; also called anti-Regnase-1 antibody; anti-non-phosphorylated Regnase-1 peptide antibody) VH: QSLEESGGGLVKPGGTLTLTCKASGIDFSSYYYMCWVRQAPGKGLEWIACIYSGDGSSYYVSWANGRFTISKTSSATVTLQMTSLTAADTATYFCARDLGNLWGPGTLVTVSS VL: QVLTQTPASVSAAVGGTVTINCQASQSVYKNSGLSWFQQKPGQSPKRLIYSASTLDSGVPSRFKGSGSGTQFTLTISDVQCDDAATYYCLGIYVCSSVDCGAFGGGTEVVVKG | binds | – | – | – |
| REB0022 (antibody, V domains shown, Cloned from immunized rabbits, expressed in HEK293 cells, purified by Protein A; also called anti-Regnase-1 antibody; anti-non-phosphorylated Regnase-1 peptide antibody) VH: QEQLEESGGDLVKPEGSLTLTCTASGGSFSSRYWMCWVRQAPGKGLEWIACIVIGDRNNYYASWAKGRFTISKTSSTTVTLQMTSLTAADTATYFCARWHSSTAPSLWGPGTLVTVSS VL: DVVMTQTPASVSEPVGGTVTINCQASQSISSYLSWYQQKPGQPPKLLIYKASTLASGVSSRFKGSGSGTEFTLTISDLECADAATYYCQCSYYVSGFVFGGGTEVVVKG | binds | – | – | – |
| REB0007: anti-Regnase-1 antibody; heavy chain SEQ ID NO: 24, light chain SEQ ID NO: 25 (antibody) heavy: QEQLEESGGDLVKPEGSLTLTCTASGFSFNSRYWICWVRQAPGKGLEWIGCIVSGDSNTYYASWAKGRFTISKTSSTTVTLQMTSLTAADTATYFCARWYTSSRPGLWGPGTLVTVSSGQPKAPSVFPLAPCCGDTPSSTVTLGCLVKGYLPEPVTVTWNSGTLTNGVRTFPSVRQSSGLYSLSSVVSVTSSSQPVTCNVAHPATNTKVDKTVAPSTCSKPTCPPPELLGGPSVFIFPPKPKDTLMISRTPEVTCVVVDVSQDDPEVQFTWYINNEQVRTARPPLREQQFNSTIRVVSTLPITHQDWLRGKEFKCKVHNKALPAPIEKTISKARGQPLEPKVYTMGPPREELSSRSVSLTCMINGFYPSDISVEWEKNGKAEDNYKTTPAVLDSDGSYFLYNKLSVPTSEWQRGDVFTCSVMHEALHNHYTQKSISRSPGK light: DVVMTQTPASVSEPVGGTVTIKCQASQSISSYLSWYQQKPGQPPKLLIYSATNLASGVSSRFKGSRFGTEFTLTISDLECDDAATYYCQCSYYVSGFAFGGGTEVVVKGDPVAPTVLIFPPAADQVATGTVTIVCVANKYFPDVTVTWEVDGTTQTTGIENSKTPQNSADCTYNLSSTLTLTSTQYNSHKEYTCKVTQGTTSVVQSFNRGD | – | bound more strongly | bound more strongly | decreased |
| REB0014: anti-Regnase-1 antibody; heavy chain SEQ ID NO: 26, light chain SEQ ID NO: 27 (antibody) heavy: QSLEESGGGLVKPGGTLTLTCKASGIDFSSYYYMCWVRQAPGKGLEWIACIYSGDGSSYYVSWANGRFTISKTSSATVTLQMTSLTAADTATYFCARDLGNLWGPGTLVTVSSGQPKAPSVFPLAPCCGDTPSSTVTLGCLVKGYLPEPVTVTWNSGTLTNGVRTFPSVRQSSGLYSLSSVVSVTSSSQPVTCNVAHPATNTKVDKTVAPSTCSKPTCPPPELLGGPSVFIFPPKPKDTLMISRTPEVTCVVVDVSQDDPEVQFTWYINNEQVRTARPPLREQQFNSTIRVVSTLPITHQDWLRGKEFKCKVHNKALPAPIEKTISKARGQPLEPKVYTMGPPREELSSRSVSLTCMINGFYPSDISVEWEKNGKAEDNYKTTPAVLDSDGSYFLYNKLSVPTSEWQRGDVFTCSVMHEALHNHYTQKSISRSPGK light: QVLTQTPASVSAAVGGTVTINCQASQSVYKNSGLSWFQQKPGQSPKRLIYSASTLDSGVPSRFKGSGSGTQFTLTISDVQCDDAATYYCLGIYVCSSVDCGAFGGGTEVVVKGDPVAPTVLIFPPAADQVATGTVTIVCVANKYFPDVTVTWEVDGTTQTTGIENSKTPQNSADCTYNLSSTLTLTSTQYNSHKEYTCKVTQGTTSVVQSFNRGDC | – | bound more strongly | bound more strongly | decreased |
| REB0022: anti-Regnase-1 antibody; heavy chain SEQ ID NO: 28, light chain SEQ ID NO: 29 (antibody) heavy: QEQLEESGGDLVKPEGSLTLTCTASGGSFSSRYWMCWVRQAPGKGLEWIACIVIGDRNNYYASWAKGRFTISKTSSTTVTLQMTSLTAADTATYFCARWHSSTAPSLWGPGTLVTVSSGQPKAPSVFPLAPCCGDTPSSTVTLGCLVKGYLPEPVTVTWNSGTLTNGVRTFPSVRQSSGLYSLSSVVSVTSSSQPVTCNVAHPATNTKVDKTVAPSTCSKPTCPPPELLGGPSVFIFPPKPKDTLMISRTPEVTCVVVDVSQDDPEVQFTWYINNEQVRTARPPLREQQFNSTIRVVSTLPITHQDWLRGKEFKCKVHNKALPAPIEKTISKARGQPLEPKVYTMGPPREELSSRSVSLTCMINGFYPSDISVEWEKNGKAEDNYKTTPAVLDSDGSYFLYNKLSVPTSEWQRGDVFTCSVMHEALHNHYTQKSISRSPGK light: DVVMTQTPASVSEPVGGTVTINCQASQSISSYLSWYQQKPGQPPKLLIYKASTLASGVSSRFKGSGSGTEFTLTISDLECADAATYYCQCSYYVSGFVFGGGTEVVVKGDPVAPTVLIFPPAADQVATGTVTIVCVANKYFPDVTVTWEVDGTTQTTGIENSKTPQNSADCTYNLSSTLTLTSTQYNSHKEYTCKVTQGTTSVVQSFNRGDC | – | bound more strongly | bound more strongly | decreased |
